Test results taken from paper PMC13235457 (2026).
Non-standard residues stand in square brackets, D forms with d. No end group written: not given here. pY = N[C@@H](Cc1ccc(OP(=O)(O)O)cc1)C(=O)O

Columns and labels:
[1] = molecular target: Syk tandem SH2 (tSH2) domain; assay: FP; 0 mM KCl, 150 mM NaCl
[2] = molecular target: Syk tandem SH2 (tSH2) domain; assay: FP; 50 mM KCl, 100 mM NaCl
[3] = molecular target: Syk tandem SH2 (tSH2) domain; assay: FP; 20 mM KCl, 130 mM NaCl
[4] = molecular target: Syk tandem SH2 (tSH2) domain; assay: FP; 5 mM KCl, 145 mM NaCl
[5] = molecular target: Syk tandem SH2 (tSH2) domain; assay: intrinsic Trp fluorescence; 0 mM KCl, 150 mM NaCl
[6] = molecular target: Syk tandem SH2 (tSH2) domain; assay: intrinsic Trp fluorescence; 50 mM KCl, 100 mM NaCl
[7] = molecular target: Syk tandem SH2 (tSH2) domain; assay: intrinsic Trp fluorescence; 5 mM KCl, 145 mM NaCl
[8] = molecular target: Syk tandem SH2 (tSH2) domain; assay: intrinsic Trp fluorescence; 20 mM KCl, 130 mM NaCl

Binder	Kd [1]	Kd [2]	Kd [3]	Kd [4]	Kd [5]	Kd [6]	Kd [7]	Kd [8]
NQL[pY]NELNLGRREE[pY]DVLD (also: AlexaFluor 488 label, position not given here) [ITAM-ζ1-Y2P peptide labeled with AlexaFluor488]	85.5 nM	84.9 nM	81.1 nM	85.5 nM				
NQL[pY]NELNLGRREE[pY]DVLD [ITAM-ζ1-Y2P peptide (doubly phosphorylated first ITAM of the CD3-ζ chain)]					97.5 nM	82.7 nM	86 nM	84.3 nM
